PMC9748336

Molecular target: HA-tagged PP2A catalytic Cα subunit p.Cys196Arg variant (human) (UniProt P67775)
Assay: co-IP; HA pull-down: lysates of HEK293T cells transfected with HA-Cα incubated 1 h at 4°C with anti-HA-agarose beads in NENT100 buffer with 1 mg/ml BSA; washes with 300 and 150 mM NaCl; endogenous A subunit detected by anti-A immunoblot, quantified against the anti-HA signal, WT set at 100%

percent decrease of binding against Cα WT: 40%
Substance: endogenous PP2A A subunit (from UniProt P30153 1-589) (natural protein)
